We go through six sequences from the supplement of paper PMC5998384.

Data set [1] has as its system HeLa Kyoto. The experiment in a line: solubility in G1/S (NP-40 vs SDS abundance) (log2 ratio); higher = more soluble. To be noted: cell cycle stage: G1/S.
Data set [2] has as its system HeLa Kyoto. The experiment in a line: melting temperature (median over replicates), in situ; higher = more thermally stable.
In data set [3] the test system is HeLa Kyoto. In words: solubility change mitosis vs G1/S (difference of NP-40 vs SDS log2 ratios) (log2 ratio difference); higher = more soluble in mitosis.
For data set [4], the system named is HeLa Kyoto. The experiment in a line: thermal stability score vs G1/S (z-score of summed log2 fold changes over temperatures); higher = more thermally stable than in G1/S.
Setting [5] is: cell cycle stage: early G1 (4.5 h after nocodazole release).
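Wherever melting temperature (median over replicates), in situ is given: HeLa Kyoto cells synchronized by double thymidine or nocodazole block, proteins quantified by TMT10plex mass spectrometry, three independent biological replicates.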
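Wherever solubility change mitosis vs G1/S (difference of NP-40 vs SDS log2 ratios) is given: synchronized HeLa Kyoto cells (double thymidine block for G1/S, nocodazole release for mitosis), protein amounts in NP-40 versus SDS lysates quantified by mass spectrometry, three biological replicates.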
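Wherever solubility in G1/S (NP-40 vs SDS abundance) is given: HeLa Kyoto cells arrested at G1/S by double thymidine block, proteins quantified by TMT10plex mass spectrometry in mild NP-40 versus SDS extracts, three biological replicates.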
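Wherever thermal stability score vs G1/S (z-score of summed log2 fold changes over temperatures) is given: synchronized HeLa Kyoto cells, proteins quantified by TMT10plex mass spectrometry, three biological replicates, mitosis taken 0.5 h after nocodazole release, G1/S directly after double thymidine block.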

Turning to “MALPHDSNETSYLLPPNNEDWGRQTIPDFVYGQKDLMAEGIQWPRNAPGIPDALPQSPFDAALCSAWKQRVELGLFRYRLRELQTQILPGAVGFVAQLNVERGVQRRPPQTIKSVRQAFDPVQFNFNKIRPGEVLFRLHREPDLPGTLLQEDILVVINVSPLEWGHVLLVPEPARQLPQRLLPGALRAGIEAVLLSLHPGFRVGFNSLGGLASVNHLHLHGYYLAHRLPVEQAPSEPLDPGGHLHLLQDLPAPGFLFYTRGPGPDLESLISRVCRATDYLTDHEIAHNLFVTRGAPPGKTSPSSALTGVRVILWARKSSFGIKDGEAFNVALCELAGHLPVKTSQDFSSLTEAAAVALIQDCRLPPSQAEDVQAALVALMSQEEQ [GDPGP1]”, in the data set with HeLa Kyoto [1], the “solubility in G1/S (log2)” value was determined as 0.217. Further, the melting temperature with HeLa Kyoto [2] (cell cycle stage: G1/S) was determined as 52.5 °C; in the data set with HeLa Kyoto [2] (cell cycle stage: mitosis), 51 °C. Also, the “solubility change mitosis (log2)” value in the data set with HeLa Kyoto [3] is -0.107. Besides, the thermal stability score is -0.152 with HeLa Kyoto [4] (setting [5]) and -0.661 in the data set with HeLa Kyoto [4] (cell cycle stage: mitosis).
Consider “MALQVELVPTGEIIRVVHPHRPCKLALGSDGVRVTMESALTARDRVGVQDFVLLENFTSEAAFIENLRRRFRENLIYTYIGPVLVSVNPYRDLQIYSRQHMERYRGVSFYEVPPHLFAVADTVYRALRTERRDQAVMISGESGAGKTEATKRLLQFYAETCPAPERGGAVRDRLLQSNPVLEAFGNAKTLRNDNSSRFGKYMDVQFDFKGAPVGGHILSYLLEKSRVVHQNHGERNFHIFYQLLEGGEEETLRRLGLERNPQSYLYLVKGQCAKVSSINDKSDWKVVRKALTVIDFTEDEVEDLLSIVASVLHLGNIHFAANEESNAQVTTENQLKYLTRLLSVEGSTLREALTHRKIIAKGEELLSPLNLEQAAYARDALAKAVYSRTFTWLVGKINRSLASKDVESPSWRSTTVLGLLDIYGFEVFQHNSFEQFCINYCNEKLQQLFIELTLKSEQEEYEAEGIAWEPVQYFNNKIICDLVEEKFKGIISILDEECLRPGEATDLTFLEKLEDTVKHHPHFLTHKLADQRTRKSLGRGEFRLLHYAGEVTYSVTGFLDKNNDLLFRNLKETMCSSKNPIMSQCFDRSELSDKKRPETVATQFKMSLLQLVEILQSKEPAYVRCIKPNDAKQPGRFDEVLIRHQVKYLGLLENLRVRRAGFAYRRKYEAFLQRYKSLCPETWPTWAGRPQDGVAVLVRHLGYKPEEYKMGRTKIFIRFPKTLFATEDALEVRRQSLATKIQAAWRGFHWRQKFLRVKRSAICIQSWWRGTLGRRKAAKRKWAAQTIRRLIRGFVLRHAPRCPENAFFLDHVRTSFLLNLRRQLPQNVLDTSWPTPPPALREASELLRELCIKNMVWKYCRSISPEWKQQLQQKAVASEIFKGKKDNYPQSVPRLFISTRLGTDEISPRVLQALGSEPIQYAVPVVKYDRKGYKPRSRQLLLTPNAVVIVEDAKVKQRIDYANLTGISVSSLSDSLFVLHVQRADNKQKGDVVLQSDHVIETLTKTALSANRVNSININQGSITFAGGPGRDGTIDFTPGSELLITKAKNGHLAVVAPRLNSR [MYO1C]”, for which the “solubility in G1/S (log2)” value with HeLa Kyoto [1] is -0.972. Also, the figures for the melting temperature in the data set with HeLa Kyoto [2] (cell cycle stage: G1/S) and with HeLa Kyoto [2] (cell cycle stage: mitosis) were 50.1 °C and 50.2 °C, respectively. The “solubility change mitosis (log2)” value with HeLa Kyoto [3] is -0.0879. The thermal stability score was -1.1 in the data set on HeLa Kyoto [4] (setting [5]) and 3.69 in the data set with HeLa Kyoto [4] (cell cycle stage: mitosis).
On to “MALRACGLIIFRRCLIPKVDNNAIEFLLLQASDGIHHWTPPKGHVEPGEDDLETALRETQEEAGIEAGQLTIIEGFKRELNYVARNKPKTVIYWLAEVKDYDVEIRLSHEHQAYRWLGLEEACQLAQFKEMKAALQEGHQFLCSIEA [NUDT2]”, for which, in the data set with HeLa Kyoto [1], the “solubility in G1/S (log2)” value is -0.102. Besides, the melting temperature with HeLa Kyoto [2] (cell cycle stage: G1/S) is 51.7 °C; with HeLa Kyoto [2] (cell cycle stage: mitosis) it was 51.9 °C. Besides, the “solubility change mitosis (log2)” value in the data set with HeLa Kyoto [3] was found to be 0.0921. The thermal stability score was -0.841 with HeLa Kyoto [4] (setting [5]) and -1.24 in the data set on HeLa Kyoto [4] (cell cycle stage: mitosis).
Regarding “MALSAQQIPRWFNSVKLRSLINAAQLTKRFTRPARTLLHGFSAQPQISSDNCFLQWGFKTYRTSSLWNSSQSTSSSSQENNSAQSSLLPSMNEQSQKTQNISSFDSELFLEELDELPPLSPMQPISEEEAIQIIADPPLPPASFTLRDYVDHSETLQKLVLLGVDLSKIEKHPEAANLLLRLDFEKDIKQMLLFLKDVGIEDNQLGAFLTKNHAIFSEDLENLKTRVAYLHSKNFSKADVAQMVRKAPFLLNFSVERLDNRLGFFQKELELSVKKTRDLVVRLPRLLTGSLEPVKENMKVYRLELGFKHNEIQHMITRIPKMLTANKMKLTETFDFVHNVMSIPHHIIVKFPQVFNTRLFKVKERHLFLTYLGRAQYDPAKPNYISLDKLVSIPDEIFCEEIAKASVQDFEKFLKTL [MTERF3]”, in the data set on HeLa Kyoto [1], the “solubility in G1/S (log2)” value turned out to be 0.238. The melting temperature is 49.7 °C in the data set with HeLa Kyoto [2] (cell cycle stage: G1/S) and 50.3 °C in the data set on HeLa Kyoto [2] (cell cycle stage: mitosis). Besides, in the data set on HeLa Kyoto [3], the “solubility change mitosis (log2)” value is -0.167. The values for the thermal stability score in the data set with HeLa Kyoto [4] (setting [5]) and in the data set with HeLa Kyoto [4] (cell cycle stage: mitosis) were -0.741 and 0.517, respectively.
As for “MALWRGSAYAGFLALAVGCVFLLEPELPGSALRSLWSSLCLGPAPAPPGPVSPEGRLAAAWDALIVRPVRRWRRVAVGVNACVDVVLSGVKLLQALGLSPGNGKDHSILHSRNDLEEAFIHFMGKGAAAERFFSDKETFHDIAQVASEFPGAQHYVGGNAALIGQKFAANSDLKVLLCGPVGPKLHELLDDNVFVPPESLQEVDEFHLILEYQAGEEWGQLKAPHANRFIFSHDLSNGAMNMLEVFVSSLEEFQPDLVVLSGLHMMEGQSKELQRKRLLEVVTSISDIPTGIPVHLELASMTNRELMSSIVHQQVFPAVTSLGLNEQELLFLTQSASGPHSSLSSWNGVPDVGMVSDILFWILKEHGRSKSRASDLTRIHFHTLVYHILATVDGHWANQLAAVAAGARVAGTQACATETIDTSRVSLRAPQEFMTSHSEAGSRIVLNPNKPVVEWHREGISFHFTPVLVCKDPIRTVGLGDAISAEGLFYSEVHPHY [ADPGK]”, the “solubility in G1/S (log2)” value with HeLa Kyoto [1] is -0.0136. In addition, the melting temperature in the data set on HeLa Kyoto [2] (cell cycle stage: G1/S) amounted to 55.3 °C; with HeLa Kyoto [2] (cell cycle stage: mitosis), 55.4 °C. The “solubility change mitosis (log2)” value with HeLa Kyoto [3] is -0.191. For the same sequence, the thermal stability score in the data set on HeLa Kyoto [4] (setting [5]) was 1.05; in the data set on HeLa Kyoto [4] (cell cycle stage: mitosis), -1.45.
As to “MALYQRWRCLRLQGLQACRLHTAVVSTPPRWLAERLGLFEELWAAQVKRLASMAQKEPRTIKISLPGGQKIDAVAWNTTPYQLARQISSTLADTAVAAQVNGEPYDLERPLETDSDLRFLTFDSPEGKAVFWHSSTHVLGAAAEQFLGAVLCRGPSTEYGFYHDFFLGKERTIRGSELPVLERICQELTAAARPFRRLEASRDQLRQLFKDNPFKLHLIEEKVTGPTATVYGCGTLVDLCQGPHLRHTGQIGGLKLLSNSSSLWRSSGAPETLQRVSGISFPTTELLRVWEAWREEAELRDHRRIGKEQELFFFHELSPGSCFFLPRGTRVYNALVAFIRAEYAHRGFSEVKTPTLFSTKLWEQSGHWEHYQEDMFAVQPPGSDRPPSSQSDDSTRHITDTLALKPMNCPAHCLMFAHRPRSWRELPLRLADFGALHRAEASGGLGGLTRLRCFQQDDAHIFCTTDQLEAEIQSCLDFLRSVYAVLGFSFRLALSTRPSGFLGDPCLWDQAEQVLKQALKEFGEPWDLNSGDGAFYGPKIDVHLHDALGRPHQCGTIQLDFQLPLRFDLQYKGQAGALERPVLIHRAVLGSVERLLGVLAESCGGKWPLWLSPFQVVVIPVGSEQEEYAKEAQQSLRAAGLVSDLDADSGLTLSRRIRRAQLAHYNFQFVVGQKEQSKRTVNIRTRDNRRLGEWDLPEAVQRLVELQNTRVPNAEEIF [TARS2]”, in the data set on HeLa Kyoto [1], the “solubility in G1/S (log2)” value came to 0.0817. Moreover, the melting temperature was found to be 51.4 °C with HeLa Kyoto [2] (cell cycle stage: G1/S) and 50.8 °C in the data set on HeLa Kyoto [2] (cell cycle stage: mitosis). Also, the “solubility change mitosis (log2)” value in the data set on HeLa Kyoto [3] is -0.134. For the same sequence, the thermal stability score in the data set on HeLa Kyoto [4] (setting [5]) is -1.35; in the data set on HeLa Kyoto [4] (cell cycle stage: mitosis), -0.229.
